US11433139B2, “Peptide vaccines against interleukin-31” (Zoetis Services LLC, priority 2018, dated 2022)
Entries after “also recorded” stand apart in the source; their conditions may differ.

Key:
feline IL-31 [1] = assay: Inhibition of feline IL-31 induced pSTAT3 signaling in feline FCWF4 macrophage-like cells; type: cell-based; settings: for potency (IC50) against feline IL-31 in feline FCWF4 cells: 0.2 μg/mL feline IL-31, pSTAT3, FCWF4 cells (FIG. 3)
Description: (§1) To identify candidates with inhibitory activity, antibodies were assessed for their ability to affect IL-31-mediated STAT3 phosphorylation in either a canine or feline cell-based assay. STAT3 phosphorylation was determined in canine DH-82 (ATCC® CRL-10389™) or feline FCWF4 macrophage-like cells (ATCC CRL-2787). DH82 and FCWF4 cells were primed with canine interferon gamma (R&D Systems, Minneapolis, Minn.) at 10 ng/mL for 24 hours or feline interferon gamma (R&D Systems, Minneapolis, Minn.) at 125 ng/mL for 96 hours, respectively, to increase receptor expression. Both cell types were serum starved for 2 hours prior to IL-31 and mAb treatment. Using two independent methods, all candidate mAbs were evaluated for their ability to inhibit either 1 μg/mL canine or 0.2 μg/mL feline IL-31 induced STAT3 phosphorylation. […] To ensure complex formation, a one hour co-incubation of mAb and IL-31 cytokine prior to cell stimulation was completed. IL-31 cell stimulation was carried out for five minutes. STAT3 phosphorylation was measured using AlphaLISA SureFire ULTRA™ technology (Perkin Elmer, Waltham, Mass.). In the case where antibody concentration and purity are unknown, hybridoma supernatants were qualitatively measured for their ability to inhibit STAT3 phosphorylation following a 1 hour co-incubation with […] IL-31. The potency of individual monoclonal antibodies defined by their ability to inhibit IL-31 mediated STAT3 phosphorylation in these assays was considered the key selection criteria for further advancement of select antibodies. The term potency refers to the IC50 value calculated from these assays and is the concentration of the antibody where signaling induced by IL-31 is reduced to one half its maximal value.

canine IL-31 [2] = assay: Affinity of anti-IL-31 antibodies by surface plasmon resonance (Biacore), canine IL-31 surface; type: binding; settings: IL-31 conjugated to the surface (FIG. 2)
Sequence of canine IL-31 (as listed by the source): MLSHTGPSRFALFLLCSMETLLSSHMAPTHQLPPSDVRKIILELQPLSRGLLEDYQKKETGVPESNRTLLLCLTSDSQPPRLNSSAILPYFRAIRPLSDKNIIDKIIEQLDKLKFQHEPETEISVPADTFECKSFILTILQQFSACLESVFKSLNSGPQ
Outline: (§2)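 IL-31 amine-coupled (NHS/EDC) at 5 μg/mL directly onto the SPR chip, quenched with ethanolamine; candidate mAbs flowed over as analyte. KD from 1:1 model fits; values below 1×10^−11 M are under the instrument's lower quantitation limit.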

feline IL-31 [3] = assay: Affinity of anti-IL-31 antibodies by surface plasmon resonance (Biacore), feline IL-31 surface; type: binding; settings: IL-31 conjugated to the surface (FIG. 2)
Outline: as §2
Target sequence in this assay (as listed by the source): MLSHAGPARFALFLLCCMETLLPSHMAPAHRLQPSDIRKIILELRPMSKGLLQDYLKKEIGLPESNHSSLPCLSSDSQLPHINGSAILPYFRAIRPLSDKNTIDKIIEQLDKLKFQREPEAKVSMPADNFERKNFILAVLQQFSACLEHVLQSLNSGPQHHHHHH

feline IL-31 [4] = assay: IL-31 induced pruritus model in cats, antibody pre-bound to feline IL-31; type: in vivo, cat
Description: To test the preliminary efficacy of mouse: feline 11E12 chimera, mouse: feline 15H05 chimera, and felinized 11 E12 (Feline 11E12 1.1), an IL-31 induced pruritus model in cats was developed. Following an intravenous dose of 0.5 μg/kg feline IL-31 (SEQ ID NO: 159; Feline_IL-31_E_coli), the corresponding nucleotide sequence for which is (SEQ ID NO: 160; Feline_IL-31_E_coli), cats will portray transient pruritic behavior that includes (but is not limited to) licking, chewing, scratching, and head or body shaking. Rubbing up against the cage was not considered a pruritic activity. Pruritic observations take place by a trained investigator for 30 minutes prior to administration of the IL-31 protein and for 1 hour following. For this study, a baseline challenge with feline IL-31 was performed up to 1 month prior to dosing with antibody. On day zero, a 0.5 mg/kg antibody dose was combined with 0.5 μg/kg of feline IL-31 at room temperature for 60 minutes prior to injecting the pre-bound complex into each animal. A “no mAb” control was included for a control. The dose of mAb represents a gross molar excess of antibody to cytokine. Pruritic activity was monitored as described on days 0, 7, and 21.
Target sequence in this assay (as listed by the source): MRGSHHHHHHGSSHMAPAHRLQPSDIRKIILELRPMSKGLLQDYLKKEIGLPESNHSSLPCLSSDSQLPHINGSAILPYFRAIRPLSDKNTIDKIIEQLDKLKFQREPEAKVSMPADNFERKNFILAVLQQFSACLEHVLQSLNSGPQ

canine IL-31 [5] = target: T1, canine IL-31 (Canis lupus familiaris, UniProt A0A8I3S3D1); assay: Inhibition of canine IL-31 induced pSTAT3 signaling in canine DH-82 and feline FCWF4 cells; type: cell-based; settings: canine IL-31; canine and feline cell types, cell type of the values not specified
T1 construct: made in house; host or cells: CHO cells (CHROMOS ACE system)
T1 sequence (A0A8I3S3D1 24-159): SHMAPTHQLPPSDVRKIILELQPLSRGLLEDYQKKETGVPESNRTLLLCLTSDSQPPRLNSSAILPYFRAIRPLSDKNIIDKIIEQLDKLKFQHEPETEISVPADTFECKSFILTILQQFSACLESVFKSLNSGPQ
Description: as §1

equine IL-31 = assay: Biacore binding, single test concentration of antibody, equine IL-31 surface
Sequence of equine IL-31 (as listed by the source): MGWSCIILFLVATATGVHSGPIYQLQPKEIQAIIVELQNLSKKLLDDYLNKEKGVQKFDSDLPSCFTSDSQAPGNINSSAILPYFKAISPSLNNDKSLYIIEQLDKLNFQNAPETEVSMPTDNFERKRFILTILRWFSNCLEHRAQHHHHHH
Description: (§3) For the indirect ELISA, binding (ELISA OD) to wildtype feline IL-31 and a feline IL-31 15H05 mutant which had mutations in the monoclonal antibody 15H05 epitope region was assessed. To confirm binding, biacore analysis was performed using canine, feline, equine, human, the feline 15H05 mutant, and feline 11E12 mutant IL-31 proteins as surfaces and a single test concentration of antibody. The feline IL-31 11E12 mutant had mutations in the monoclonal antibody 11E12 epitope region.
(§4) For the indirect ELISA method, antibody binding to wildtype and feline IL-31 15H05 mutant proteins was assessed. […] In comparison, the 11E12 antibody bound to the wild-type feline IL-31 and its binding was not impacted by the mutations in the 15H05 epitope region as evidenced by the data in FIG. 4. To confirm binding, biacore analysis was performed using canine, feline, equine, human, feline 15H05 mutant, and feline 11E12 mutant IL-31 proteins as surfaces and a single test concentration of antibody. Similar to ELISA observations, all antibodies tested bound to wildtype feline IL-31. In agreement with the data described above in this section, mouse antibodies 11 E12 and 15H05 both bound to canine and feline IL-31 surfaces. […] From this group of nine fully canine antibodies, only ZIL1 and ZIL9 cross-reacted with equine IL-31. Of note, antibody 15H05 was the only one of all assayed herein that bound to canine, feline, and equine IL-31 indicating some level of epitope conservation across the three species. In contrast, none of the antibodies described herein bound to human IL-31. Additional biacore surfaces were used to verify ELISA observations showing differential binding of antibodies to wildtype feline IL-31 and two proteins with mutations in the 15H05 (15H05 mutant) or 11 E12 (11E12 mutant) epitopes. […] Differing results can be attributed to differences in the two assay methodologies.

[6] = tested on: feline 15H05 mutant IL-31; assay: Biacore binding, single test concentration of antibody, feline 15H05 mutant IL-31 surface
Description: as §3, §4

[7] = tested on: feline 11E12 mutant IL-31; assay: Biacore binding, single test concentration of antibody, feline 11E12 mutant IL-31 surface
Sequence of feline 11E12 mutant IL-31 (as listed by the source, change not shown): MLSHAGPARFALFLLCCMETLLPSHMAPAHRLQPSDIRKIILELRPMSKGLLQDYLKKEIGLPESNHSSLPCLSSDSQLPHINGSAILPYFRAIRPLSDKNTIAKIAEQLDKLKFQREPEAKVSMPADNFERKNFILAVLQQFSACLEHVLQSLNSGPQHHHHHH
Description: as §3, §4

[8] = tested on: feline IL-31 15H05 mutant; assay: Indirect ELISA, binding to feline IL-31 15H05 mutant; settings: compared with wildtype
Sequence of feline IL-31 15H05 mutant (as listed by the source, change not shown): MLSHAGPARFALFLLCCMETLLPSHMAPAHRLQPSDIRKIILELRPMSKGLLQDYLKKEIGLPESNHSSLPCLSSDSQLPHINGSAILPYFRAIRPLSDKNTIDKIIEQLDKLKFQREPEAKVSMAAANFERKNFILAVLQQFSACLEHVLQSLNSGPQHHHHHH
Description: (§5) Mice and dogs were immunized with recombinant canine IL-31 (SEQ ID No. 155) for the purpose of identifying antibodies. Serum antibody titers from immunized animals were determined using an enzyme linked immunosorbent assay (ELISA). Canine or feline IL-31 (50 ng/well) was immobilized to polystyrene microplates and used as a capture antigen. Serum from immunized animals was diluted in phosphate buffered saline with 0.05% tween-20 (PBST). The presence of anti-IL-31 antibodies was detected with an appropriate secondary HRP labeled antibody. Following addition of a chromogenic substrate (SureBlue Reserve TMB 1-Component Microwell Peroxidase Substrate, KPL, Inc., Gaithersburg, Md.) and a ten minute incubation at room temperature (RT) the reaction was stopped with the addition of […] of 0.1 N HCl. The absorbance of each well was determined at an optical density (OD) of 450 nm. Antibodies were selected for their ability to bind canine and feline IL-31 using an ELISA. In some cases, further characterization was performed at the time of selection using an ELISA with a mutant form of the feline IL-31 protein as a capture antigen. Cells producing antibodies with desired binding and inhibitory properties were chosen for sequence analysis of RNA transcripts representing the variable heavy (VH) and variable light (VL) IgG chains.
as §4
(§6) To determine the impact of mAbs 11E12 and 15H05 ability to bind these mutant forms of feline IL-31, an indirect ELISA was run using the mutants directly coated on to an immunoassay plate. […] The minor attenuation of mAb 15H05s binding to the 11E12 mutant is likely due to translational effects of the mutations from movement of the two front helices effecting the 15H05 binding site. The mutations designed to affect mAb 15H05s binding (mutant 15H05) show a complete loss of mAb 1505s ability to bind this IL-31 mutant by ELISA. Unlike the 11E12 mutant, the changes in the random coil recognized by mAb 15H05 (mutant 15H05) had no impact on mAb 11E12 binding further supporting the distinction between the two epitopes (FIG. 6C).

wildtype feline IL-31 = assay: Indirect ELISA, binding to wildtype feline IL-31
Description: as §5, §4, §6

feline IL-31 [9] = assay: Inhibition of feline IL-31 induced pSTAT3 signaling in canine DH-82 cells; type: cell-based; settings: feline IL-31, pSTAT3, canine DH82 cells (FIG. 3)
Description: as §1
Target sequence in this assay (as listed by the source): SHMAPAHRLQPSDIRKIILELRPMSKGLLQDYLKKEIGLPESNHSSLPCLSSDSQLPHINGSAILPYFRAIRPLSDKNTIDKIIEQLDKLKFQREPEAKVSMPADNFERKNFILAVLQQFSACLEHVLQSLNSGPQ

B1: mouse: feline 15H05 chimera: mouse 15H05 variable regions on feline IgG constant regions (antibody)
heavy: QVQLQQSAAELARPGASVKMSCKTSGYTFTSYTIHWIKQRPGQGLEWIGNINPTSGYTENNQRFKDKTTLTVDRSSNTAYLQLHSLTSEDSAVYFCARWGFKYDGEWSFDVWGAGTTVTVSSASTTAPSVFPLAPSCGTTSGATVALACLVLGYFPEPVTVSWNSGALTSGVHTFPAVLQASGLYSLSSMVTVPSSRWLSDTFTCNVAHPPSNTKVDKTVRKTDHPPGPKPCDCPKCPPPEAAGAPSIFIFPPKPKDTLSISRTPEVTCLVVDLGPDDSDVQITWFVDNTQVYTAKTSPREEQFNSTYRVVSVLPILHQDWLKGKEFKCKVNSKSLPSPIERTISKAKGQPHEPQVYVLPPAQEELSRNKVSVTCLIKSFHPPDIAVEWEITGQPEPENNYRTTPPQLDSDGTYFVYSKLSVDRSHWQRGNTYTCSVSHEALHSHHTQKSLTQSPGK
light: DIQMNQSPSSLSASLGDTITVTCRASQGISIWLSWYQQKPGNIPKVLINKASNLHIGVPPRFSGSGSGTHFTLTITSLQPEDIATYYCLQSQTYPLTFGGGTKLEINRSDAQPSVFLFQPSLDELHTGSASIVCILNDFYPKEVNVKWKVDGVVQNKGIQESTTEQNSKDSTYSLSSTLTMSSTEYQSHEKFSCEVTHKSLASTLVKSFQRSECQRE
- fold increased IC50 relative to mouse: feline 11E12 chimera (feline IL-31 [1]; feline IL-31 induced pSTAT3 signaling in feline FCWF4 cells): approximately 2 fold
- affinity (KD) to canine IL-31 (canine IL-31 [2]): lost some affinity
- affinity (KD) to feline IL-31 (feline IL-31 [3]): lost some affinity
- pruritus scores compared to placebo control (feline IL-31 [4]; 0.5 mg/kg antibody pre-bound with 0.5 μg/kg feline IL-31, days 0, 7, 21): significant improvement (p<0.05)
- IC50 against canine IL-31 (canine IL-31 [5]): 28.61 µg/mL

B2: ZIL9: fully canine anti IL-31 antibody, VH SEQ ID NO: 83, VL SEQ ID NO: 85 (antibody, listed as Canis familiaris, V domains shown)
VH: EVQLVESGGDLVKPPGSLRLSCVASGFTFSSYDMTWVRQAPGKGLQWVADVNSGGTGTAYAVAVKGRFTISRDNAKKTLYLQMNSLRAEDTAVYYCAKLGVRDGLSVWGQGTLVTVSS
VL: SSVLTQPPSVSVSLGQTATISCSGESLNEYYTQWFQQKAGQAPVLVIYRDTERPSGIPDRFSGSSSGNTHTLTISGARAEDEADYYCESAVDTGTLVFGGGTHLAVL
- binding to equine IL-31 (Biacore) (equine IL-31): cross-reacted

B3: ZIL1: fully canine anti IL-31 antibody, VH SEQ ID NO: 75, VL SEQ ID NO: 77 (antibody, listed as Canis familiaris, V domains shown)
VH: EVQLVESGGDLVKPGGSLRLSCVASGFTFSSYGMSWVRQAPGKGLQWVAHINSGGSSTYYADAVKGRFTISRDNAKNTLYLQMNSLRAEDTAVYYCVEVYTTLAAFWTDNFDYWGQGTLVTVSS
VL: QSVLTQPTSVSGSLGQRVTISCSGSTNNIGILAATWYQQLPGKAPKVLVYSDGNRPSGVPDRFSGSKSGNSATLTITGLQAEDEADYYCQSFDTTLDAYVFGSGTQLTVL
- binding to feline 15H05 mutant IL-31 (Biacore) [6]: decreased
- binding to equine IL-31 (Biacore) (equine IL-31): cross-reacted
- binding to feline 11E12 mutant IL-31 (Biacore) [7]: partially effected
- binding to feline IL-31 15H05 mutant (ELISA) [8]: binding was impacted; also recorded: decreased
- binding to wildtype feline IL-31 (ELISA) (wildtype feline IL-31): capable of binding; also recorded: retained binding

B4: Feline 11E12 1.1: felinized 11E12, FEL_11E12_VH1 paired with FEL_11E12_VL1 (antibody, V domains shown)
VH: QVLLVQSGAEVKKPGASVKIFCKASGYSFTYYDINWLRQAPEQGLEWMGWIFPGDGGTKYNETFKGRLTLTADTSTNTVYMELSSLRSADTAMYYCARGGTSVIRDAMDYWGQGALVTVSS
VL: EIQMTQSPSSLSASPGDRVTITCRASESVDNYGISFMHWYQQKPGKVPKLLIYRASNLESGVPSRFSGSGSGTDFTLTISSLEPEDAATYYCQQSNKDPLTFGQGT
- potency (IC50) against feline IL-31 in feline FCWF4 cells (feline IL-31 [1]): loss of potency
- potency (IC50) against feline IL-31 in feline FCWF4 cells (feline IL-31 [1]; listed as Felinized 11E12 1.1): approximately a two-fold decrease in potency
- potency (IC50) against feline IL-31 in canine DH82 cells (feline IL-31 [9]): loss of potency
- affinity (KD) to canine IL-31 (canine IL-31 [2]): loss of affinity
- affinity (KD) to feline IL-31 (feline IL-31 [3]): loss of affinity
- pruritus scores compared to placebo control (feline IL-31 [4]; 0.5 mg/kg antibody pre-bound with 0.5 μg/kg feline IL-31, days 0, 7, 21, 0.5 mg/kg): did not reduce pruritus at day zero
- pruritus scores compared to placebo control (feline IL-31 [4]; 0.5 mg/kg antibody pre-bound with 0.5 μg/kg feline IL-31, days 0, 7, 21, listed as feline 11E12 1.1, 0.5 mg/kg): lack of efficacy
